A short description of the series: soluble on expression in E. coli; label from the status in PepcDB or PDB records.
For the sequence “MGSDKIHHHHHHMKSHVRSFKTYIRDEIIKKGGWVNAHAHADRAFTMTPEKIGIYHSSNLQQKWDLVDEVKRTSSVDDYYARFCQSIELMISQGVTAFGTFVDIDPICEDRAIIAAHKAREVYKHDIILKFANQTLKGVIEPTARKWFDIGAEMVDMIGGLPYRDELDYGRGLEAMDILLDKAKSLGIMCHVHVDQFNNPSEKETEQLCDKTIEHGMEGRVVGIHGISIGSHSKEYRYKLYEKMRKAKMMMIACPMAWIDSNRKEDLMPFHNALTPADEMIPEVSLLP”, the “soluble on expression in E. coli” value is reported as “not soluble”.

As to “MTITSLDGYRWLKNDIIRGNFQPDEKLRMSLLTSRYALGVGPLREALSQLVAERLVTVVNQKGYRVASMSEQELLDIFDARANMEAMLVSLAIARGGDEWEADVLAKAHLLSKLEACDASEKMLDEWDLRHQAFHTAIVAGCGSHYLLQMRERLFDLAARYRFIWLRRTVLSVEMLEDKHDQHQTLTAAVLARDTARASELMRQHLLTPIPIIQQAMAGN”, the “soluble on expression in E. coli” value is on record as “soluble”.

“MSLEKKDNVFTFGNALSLYYKDYETPLIINTDDINQFKRSDKFYVLGNEFNAEIKYPYFMSSLYCIESGDIVMVYNAVELIQRPRLIIKALMALRKKYGFSKLIYLPGIGDPYIIPVLVYAGADLFDDTYIKEESINNIKYTMMGKTKSSDNNINDNLKFANDIISLLRSSIKTGTLREFVEKFQYSSRAIEMLRIIDNDYFSDYSMVFPVYTPYIKANTIESLNRPDIVSYRNYIKNDYSKPDVENLLILPCSAKKPYSKSKSHKKILSRIEKYRKYIHELIVTSPVGLVPRELESMYPAAFYDIPVIGLWYEDEKKMINDLLKSYLSKNRYKNIIAYIDEDLNFIKSSGNIILIEGNILSEEKLSELESTLRDLTINSPKMDHLFNYKSMLSYQFGTWIKDYLDDIKISRSYNMDMVTRNGRALFVFNEKLGRFTINRNGAGIFLNAGKKIVYIDDFKPTSYVFNAGIKDATDDIKPGDEVIIVHNNEIRGVGTALISYRAMIDLDHGAGVKVREGHHHHHH”: the “soluble on expression in E. coli” value is listed as “soluble”.

On to “MSLSRQCVLAGISRAALYARRKPKRIVQDDELLLRLIDEEYTRHPFYGSRKMVVHLGRCGHSVNRKWAQRLMRSLGLAGMAPGPNTSRAHPQHKVYPYLLRGVAISRPNQVWSTDITYIRLARGFAYLVAVIDWYSRRVLSWRISNSMETVFCVDCLEEALRIHGKPEVFNTDQGSQFTSEAFTSVLKREGVIISMDGRGRALDNIFVERLWRSVKHEDVYLKGYSAMGELLIGLTQYFTFYNGERPHQALKNLTPDVVYQRAQGGGAMIVDKYGAAQSLPMALRSTGTAFDEVRLALLCHVTHADAGLSWRCSEGTERKSRDEAWREGHHHHHH”, for which the “soluble on expression in E. coli” value is “not soluble”.

On to “MCLVQATGGSSTHKLVSAGAEKMIITRPDFVDPPGSKDISITRTARAPKEDKLVIHFCTCRCN”, for which the “soluble on expression in E. coli” value is recorded as “not soluble”.

Take “MAHHHHHHMIVLLRKNNLKNTLRLFPLGCNNKLVFMRGYINEQTKGPIEKKTTDNNEKMLLNKTLEDVKVSKENSCNALFDECLEELYRMKKKVDKESVEYDNSPIIEELNREELKITRNIFERINKKKKHVSNLSYKDIYIDPYWNPFKDVDNLKQEILYEFNEYSKMASIVELKKQRRAIKKSLKEQYKLYNPYSEEYNKHFNLNMDNDVKEQQMECHDKDEKYWNPSFNKRKILNIKSPFIWRYTHLLHHFIGENGLILPRKINMTTRKQQIQIFKSICIARRMALYPYDKKPEKDDLIPLMDPLQFLLDELIHRYIQLNDLRAQAIIKVMINRYPSLNYYKYFFYESKKEKDKNEKTAQNEQEENVSEKKEPFSQMLQKYKKNYYENFYKY”: the “soluble on expression in E. coli” value is recorded as “not soluble”.

As to “SIDKNFWQGKRVFVTGHTGFKGSWLSLWLTEMGAIVKGYALDAPTVPSLFEIVRLNDLMESHIGDIRDFEKLRSSIAEFKPEIVFHMAAQPLVRLSYEQPIKTYSTNVMGTVHLLETVKQVGNIKAVVNITSDKCYDNREWVWGYRENEPMGGYDPYSNSKGCAELVASAFRNSFFNPANYEQHGVGLASVRAGNVIGGGDWAKDRLIPDILRSFENNQQVIIRNPYSIRPWQHVLEPLSGYIVVAQRLYTEGAKFSEGWNFGPRDEDAKTVEFIVDKMVTLWGDDASWLLDGENHPHEAHYLKLDCSKANMQLGWHPRWGLTETLSRIVKWHKAWIRGEDMLICSKREISDYMSATTR”, the “soluble on expression in E. coli” value is listed as “soluble”.

In the case of “MNEKEKIIEYWRRRARECLDDAKLLLKNERLHSAVNRIYYALFYQVSALLLAKGLSFSKHSGVLAAFNREFVKTGKVNKELGKFYNRMFEHRKTGDYGELVEFEEENVKDWIRKAEGFLDAIEKLIEDLKRA”, the “soluble on expression in E. coli” value is reported as “not soluble”.

For the sequence “GAPRSHEVPLLVTLEELYLGKRKKIKVTRKRFIEHKVRNEENIVEVEIKPGWKDGTKLTYSGEGDQESPGTSPGDLVLIIQTKTHPRFTRDDCHLIMKVTIPLVRALTGFTCPVTTLDNRNLQIPIKEIVNPKTRKIVPNEGMPIKNQPGQKGDLILEFDICFPKSLTPEQKKLIKEALD”, the “soluble on expression in E. coli” value was “soluble”.

On to “GPGSMKALVRRFGPEPSVIEECSADQEWEKPCLASTEDTAVAPGDSVKDTRNNLSGSEGLANGRAESSQRAVDVSSFIRLFSVEWCLTEEQQAENSRRLDAFFHPHPAPPSCQPAPLLPSVQTCGETVDPDIWSLPEVSQEELQRWREEKLSLSDRLVWRGRKTIKQVNMRRM”, for which the “soluble on expression in E. coli” value is given as “not soluble”.

As for “FSDFIANHIFMESRCEGIIRITAISLPFMCIHNCLSNYYYSQKESFLPASSQLVEQLVRIGTIILYVRIKNVSTISIADAVTGNIFGEFAAATYCAIPLFFRSIHNKSMMQKLSCSLREYRYIVKYAFPINANQTVLHLLEGAEAILIPAILCMHGLTKDNAISQFGILTGM”, the “soluble on expression in E. coli” value is listed as “not soluble”.

For the sequence “MAHHHHHHMSAMSSSDDAPPHQRLASEQSKRDSGAHVGAREHIHDAPTLSARARFLRELERYASDDDDYGGNGGAAVVGAGPMRQPNQANGAPQRRTAFPLVSATRAAAPSVGPSSSSDFFFGGEGGSHDEADDEDVGEDAVWSTASAASLARTLNGVPVTGSTSDIGTTGGSAAPSRVGLQLLHRMHALSTSGDRRSSGHDSAVHSAATRANVMIPQTSPTPTSSADFEVVHAYVPLSTGGFLSTANAAHDTMEGYQVRIGDVLSLRKPLSCTDPPPSSAVASAPASSPTTSTATPSIAALTLTTGSAAAGASATGSLVKDVAQKAMGHFKSAATFTSEEQKYGRKLTPDMVRLLFEVTRVDYQGRSIEALFLDGTRAKVSFFEVRPAGYVERKMYATWKADPSSRPVTIIHSNASSPTTSSAPNGAVMPSSVPSPALPPPPSVTAAAWWVIPRLLVRVTTEAAGDWYGKKCVVKAVQRSENRVRLAEWVEEGRSDGGESGSRSFHNCGKPTAATAETRELIGVDGLETVVPKKGGRAMVVLGSRRGEMCTVRNRVRGADGELTAVEVEISRTKEVMTLQAGELCALAR”, the “soluble on expression in E. coli” value is “soluble”.

As for “MLNIFCPHCGELRSEEEFHAKGQAHIPRPLDPNACSDEEWGDYMFFRDNPRGLHHELWVHAAGCRKYFNVTRHTVTYEILETYLIGEQPSVVADGEKKPAVQGEPA”, the “soluble on expression in E. coli” value is reported as “not soluble”.

Consider “GAMGSWNPKYDTRTLWTTPDTSPNCTIAQDKDSKLTLVLTKCGSQILANVSLIVVAGKYHIINNKTNPKIKSFTIKLLFNKNGVLLDNSNLGKAYWNFRSGNSNVSTAYEKAIGFMPNLVAYPKPSNSKKYARDIVYGTIYLGGKPDQPAVIKTTFNQETGCEYSITFNFSWSKTYENVEFETTSFTFSYIAQE”, for which the “soluble on expression in E. coli” value was “soluble”.

Consider “MKKFTCVQDIGDLKSALAESFEIKKDRFKYVELGRNKTLLMIFFNSSLRTRLSTQKAALNLGMNVIVLDINQGAWKLETERGVIMDGDKPEHLLEAIPVMGCYCDIIGVRSFARFENREYDYNEVIINQFIQHSGRPVFSMEAATRHPLQSFADLITIEEYKKTARPKVVMTWAPHPRPLPQAVPNSFAEWMNATDYEFVITHPEGYELDPKFVGNARVEYDQMKAFEGADFIYAKNWAAYTGDNYGQILSTDRNWTVGDRQMAVTNNAYFMHCLPVRRNMIVTDDVIESPQSIVIPEAANREISATVVLKRLLENLPHHHHHH”, for which the “soluble on expression in E. coli” value is “soluble”.

For “MRLFHELLGPLELPDRFSRIVSLAPNLTDALFALGLGERLVGRSAFCHRPAPVLALPVVASYTKTRLELLRSLKPDLVLLSTGVQREQALRLKEEGFPVYAVPLPTSPYGILENLSTLGHLLDLEERAVALAHELSGRYAALRGRFDLRVYFEMDLGGPITVGRGSYIAQALLHMGLKPIFLDVPQAYFAPDLEEVRRRAPDLFLYEPKPWGKNPLEKARALARERGWDFPVAATDGDELAHYGPMFFGFLEKLARRVEETLGQA”, the “soluble on expression in E. coli” value is reported as “soluble”.

With “MGSDKIHHHHHHLSTSQPAEPGDEIARLGALAADFRRRLELDPGAIYPAHAECLWRLGNLQIAQGDVEAGLLSISDSVGLYRAIAQAQPDSYAVQLASLLNSQSNMLAEASHLEEARAIASDAVEHARSAMDDYGDQARFVLVSALINLAGLKMRSGDTAGTVDELAQAVEVFRDGGTAGQPFLGSMVEALHRAAMAFTEVGLWNEAIDTRRLLIGLFGQAPPSAVVQLLMLTLQQASVGLAGTGDTAKALVHANEAVDLARMLFAADGQANRLALAQAVGNLAGRHHDAGSLKEALDLSLEAVDLFQDAVSMDPIHAVPSLIVTLDCMASILTALGLPDQAATVREQRSQLQETLEIIAPRAN”, the “soluble on expression in E. coli” value is recorded as “not soluble”.

Take “MIAQLPSELLSLQLPLRIRIGDAQAFDLGPDPQVTMVIRDPSLLTEITHPSLDALGKAYVEKRLDIEGPISQVIGIGDALSEALGEPDGGAPPVRESHDKDTDAEAIHYHYDLSNDFYQLWLDPEMVYSCAYFETGKEDLATAQLAKLRHLCRKLRLQPGEKLLDVGCGWGGLARLAAREFGVEVTGITLSKEQLALGRERVKAEGLEDRVTLKLLDYRDLPRDGRFDKVVSVGMFEHVGHANLGLYFQQLYEAVRPGGLVMNHGITSRYTDGRPVGKGAGDFIDRYVFPHGELPHLSLAVARMSEAGLEVVDVESLRLHYARTLDFWSANLEARLKEAARLVPEETLRIWRLYLAGCAYGFKRGWINL”: the “soluble on expression in E. coli” value is recorded as “not soluble”.

For the sequence “MRVIKIQTKGDVRISYAIETIRINEWTKAIAEVIFEKDGVPEWEIEAVSRMSSDYVGSLGSEFEILDVSIDRRTNSYKIKGKYEGFYLAGTPIEAIEKDIVESVLSLRFESLDVYEVNIEDPFEDYDPSEYWELMDWEELEHHHHHH”, the “soluble on expression in E. coli” value is “not soluble”.

As to “MGSDKIHHHHHHLDELRSGLDKPSHFRLGLAMWSHSNWQESVYGHGIKQAERLARYATIFNTVEGNTSFYATPAQQTVMNWHSATPDDFRFTFKLPQTITHQRLLQHCGQELKDFFQVMAPLIDKTGIWKIQLPAHFGPENLPVLAQFLNQVPQGLTYGVEVRHAAFFAKGDAERALNRLLIDKKVNRIIMDSRPLFALPPSNAAIIDAHKKKPRVPVHAIATANNPVVRFIGQPDDAVAQLAQQGVSALPKNNDAFFDNWLAQLPLWLAEGREPYLFIHTPDNETAPELAIRLYQTLRSQIAAQIQLAELSLLEKIPEETSTQMGLAW”, the “soluble on expression in E. coli” value was “not soluble”.

Turning to “MNFFTSPFSGIPLDQQVTNPNIIVGKHSYYSGYYHGHSFDDCVRYLHPERDDVDKLVIGSFCSIGSGAVFMMAGNQGHRSDWISTFPFFYQDNDNFADARDGFTRSGDTIIGHDVWIGTEAMIMPGVKIGHGAIIASRSVVTKDVAPYEVVGSNPAKHIKFRFSDVEIAMLLEMAWWNWPESWLKESMQSLCSSDIEGLYLNWQSKART”, the “soluble on expression in E. coli” value is reported as “not soluble”.

The values are drawn from the DeepSol protein solubility set.
